Drawing on article PMC4431499, this text covers Kd for two sequences.

The target of this data set is T1, PTK7 (on intact CCRF-CEM cells) (human (CCRF-CEM, T cell acute lymphoblastic leukemia)) (UniProt Q13308).
T1 sequence: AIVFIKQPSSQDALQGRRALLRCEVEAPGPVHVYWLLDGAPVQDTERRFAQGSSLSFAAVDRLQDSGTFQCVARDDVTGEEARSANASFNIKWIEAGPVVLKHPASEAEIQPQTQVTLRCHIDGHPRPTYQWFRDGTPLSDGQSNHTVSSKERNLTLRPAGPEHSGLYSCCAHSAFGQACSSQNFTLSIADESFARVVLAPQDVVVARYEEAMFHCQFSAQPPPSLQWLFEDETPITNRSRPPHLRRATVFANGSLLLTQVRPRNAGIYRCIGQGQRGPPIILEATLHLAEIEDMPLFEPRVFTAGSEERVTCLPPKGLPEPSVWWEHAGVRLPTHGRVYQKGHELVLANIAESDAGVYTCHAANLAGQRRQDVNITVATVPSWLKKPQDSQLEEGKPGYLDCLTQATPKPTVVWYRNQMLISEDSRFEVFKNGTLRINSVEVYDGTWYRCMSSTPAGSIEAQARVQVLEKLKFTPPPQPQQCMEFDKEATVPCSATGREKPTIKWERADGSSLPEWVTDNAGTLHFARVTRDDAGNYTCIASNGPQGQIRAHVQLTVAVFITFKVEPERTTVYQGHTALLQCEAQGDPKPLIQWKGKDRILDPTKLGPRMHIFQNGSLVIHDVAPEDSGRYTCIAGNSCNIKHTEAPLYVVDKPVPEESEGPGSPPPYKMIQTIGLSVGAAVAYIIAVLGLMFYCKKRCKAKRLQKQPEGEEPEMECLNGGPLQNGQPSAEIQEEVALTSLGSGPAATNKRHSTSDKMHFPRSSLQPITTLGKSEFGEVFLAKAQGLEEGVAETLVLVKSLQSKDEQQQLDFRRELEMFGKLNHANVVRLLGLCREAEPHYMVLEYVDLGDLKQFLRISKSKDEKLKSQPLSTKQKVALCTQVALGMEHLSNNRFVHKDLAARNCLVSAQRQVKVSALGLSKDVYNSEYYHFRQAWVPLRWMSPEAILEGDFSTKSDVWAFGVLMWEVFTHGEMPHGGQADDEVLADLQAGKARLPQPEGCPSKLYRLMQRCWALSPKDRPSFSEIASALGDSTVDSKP
Put plainly: flow cytometry, CCRF-CEM cells. The following applies: apparent Kd on cells, 1x PBS, 0.55 mM MgCl2, pH 7.4, 200 uL, 1e5 cells, 30 min in the dark at room temperature (Methods; Results say on ice). On the technique in general: A flow cytometer gives signals particle by particle.

“ATCTAACTGCTGCGCCGCCGGGAAAATACTGTACGGTTAGA [free sgc8]”: the Kd turned out to be 2.95 nM.

For the sequence “TATGTCTCGAGTATTTTTATCTAACTGCTGCGCCGCCGGGAAAATACTGTACGGTTAGA / GACCGATGGATGACCTGTCTGCCTAATGTGCGTCGTAAG / GACCGATGGATGACTTACGACGCACAAGGAGATCATGAG / GACCGATGGATGACTCATGATCTCCTTTAGGCAGACAGG / GAAGCCACTCTGACCTGTCTGCCTAATGTGCGTCGTAAG / GAAGCCACTCTGACTTACGACGCACAAGGAGATCATGAG / TCATCCATCGGTCCTCATGATCTCCTTTAGGCAGACAGG / GACACACTGAGGTCCTGTCTGCCTAATGTGCGTCGTAAG / GACACACTGAGGTCTTACGACGCACAAGGAGATCATGAG / TCAGAGTGGCTTCCTCATGATCTCCTTTAGGCAGACAGG / TACTCGAGACATACCTGTCTGCCTAATGTGCGTCGTAAG / TACTCGAGACATACTTACGACGCACAAGGAGATCATGAG / ACCTCAGTGTGTCCTCATGATCTCCTTTAGGCAGACAGG [G3-sgc8 DNA dendrimer]”, the Kd (multivalent) was found to be 0.07 nM.
